The values below are quoted from earlier work in article PMC12756081.

Usually pKd stands for −log10 of the Kd, conventionally taken in molar units.

pKd: −log10 of the molar value.

Data set [1] addresses IL-18Rα/IL-18Rβ (Homo sapiens) (UniProt Q13478). The settings on record: cited from earlier work.
The next data set concerns the target IL-18Rα (Homo sapiens) (UniProt Q13478). The settings on record: cited from earlier work.

IL-18, sequence (Q14116 37-193): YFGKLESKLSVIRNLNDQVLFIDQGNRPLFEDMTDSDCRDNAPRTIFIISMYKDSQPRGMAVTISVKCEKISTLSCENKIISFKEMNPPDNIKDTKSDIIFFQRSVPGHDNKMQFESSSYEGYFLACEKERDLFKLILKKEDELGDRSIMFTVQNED
IL-18Rα/IL-18Rβ (Homo sapiens), sequence (Q13478 19-541, chain 1 of 2): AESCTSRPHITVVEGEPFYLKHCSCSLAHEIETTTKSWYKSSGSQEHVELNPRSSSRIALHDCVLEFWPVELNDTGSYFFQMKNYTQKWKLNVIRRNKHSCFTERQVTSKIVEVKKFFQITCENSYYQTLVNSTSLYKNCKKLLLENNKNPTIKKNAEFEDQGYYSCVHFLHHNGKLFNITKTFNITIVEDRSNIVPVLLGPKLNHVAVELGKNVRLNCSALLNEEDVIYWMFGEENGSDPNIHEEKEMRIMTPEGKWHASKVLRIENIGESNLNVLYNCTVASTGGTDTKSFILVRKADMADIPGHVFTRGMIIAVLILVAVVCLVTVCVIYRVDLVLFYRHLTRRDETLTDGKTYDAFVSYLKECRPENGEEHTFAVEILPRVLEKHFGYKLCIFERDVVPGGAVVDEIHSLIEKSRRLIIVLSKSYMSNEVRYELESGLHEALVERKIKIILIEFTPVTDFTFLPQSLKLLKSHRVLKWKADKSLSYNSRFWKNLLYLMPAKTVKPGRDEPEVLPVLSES
IL-18Rα/IL-18Rβ (Homo sapiens), sequence (O95256 20-599, chain 2 of 2, further chain): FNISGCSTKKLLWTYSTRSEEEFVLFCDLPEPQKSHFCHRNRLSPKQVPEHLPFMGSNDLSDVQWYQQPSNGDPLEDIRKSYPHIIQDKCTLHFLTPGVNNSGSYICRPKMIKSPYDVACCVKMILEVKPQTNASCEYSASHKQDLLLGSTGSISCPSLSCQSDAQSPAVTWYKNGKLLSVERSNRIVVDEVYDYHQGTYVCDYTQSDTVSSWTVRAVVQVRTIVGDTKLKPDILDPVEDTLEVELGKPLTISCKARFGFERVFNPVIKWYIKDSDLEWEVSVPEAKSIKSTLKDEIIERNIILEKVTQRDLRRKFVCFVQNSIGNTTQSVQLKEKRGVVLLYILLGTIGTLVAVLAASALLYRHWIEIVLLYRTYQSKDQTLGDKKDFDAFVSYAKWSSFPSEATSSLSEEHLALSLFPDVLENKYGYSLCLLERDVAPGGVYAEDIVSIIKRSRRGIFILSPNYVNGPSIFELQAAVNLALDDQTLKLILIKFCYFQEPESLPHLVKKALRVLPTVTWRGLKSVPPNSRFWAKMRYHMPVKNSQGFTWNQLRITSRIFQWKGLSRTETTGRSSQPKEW
IL-18Rα (Homo sapiens), sequence (Q13478 19-541): as the sequence (Q13478 19-541, chain 1 of 2) above

For IL-18 (from UniProt Q14116), the pKd in data set [1] was 9.00; in the data set with IL-18Rα (Homo sapiens), 7.52.
